US20110033935

Legend:
[1] = molecular target: T1, variant of LAM2 in which glutamic acids at positions 8 and 61 were changed to lysine
T1 chain: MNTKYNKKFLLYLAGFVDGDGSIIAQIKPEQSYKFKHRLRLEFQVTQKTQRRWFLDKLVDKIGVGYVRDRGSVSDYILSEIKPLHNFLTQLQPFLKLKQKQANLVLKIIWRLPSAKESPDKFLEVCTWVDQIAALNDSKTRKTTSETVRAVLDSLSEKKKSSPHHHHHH

HGH2 = molecular target: T2, HGH2
T2 chain: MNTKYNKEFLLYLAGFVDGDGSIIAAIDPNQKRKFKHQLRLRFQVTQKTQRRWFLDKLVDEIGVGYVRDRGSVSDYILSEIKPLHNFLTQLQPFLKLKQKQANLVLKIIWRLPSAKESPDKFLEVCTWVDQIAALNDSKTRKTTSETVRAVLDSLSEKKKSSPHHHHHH

GLA2 = molecular target: T3, GLA2
T3 chain: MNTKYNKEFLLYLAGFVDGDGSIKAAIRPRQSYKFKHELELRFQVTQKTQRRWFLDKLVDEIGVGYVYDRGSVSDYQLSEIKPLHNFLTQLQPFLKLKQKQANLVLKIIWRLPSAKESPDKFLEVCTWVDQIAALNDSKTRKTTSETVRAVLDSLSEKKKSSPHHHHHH

BRP2 = molecular target: T4, BRP2
T4 chain: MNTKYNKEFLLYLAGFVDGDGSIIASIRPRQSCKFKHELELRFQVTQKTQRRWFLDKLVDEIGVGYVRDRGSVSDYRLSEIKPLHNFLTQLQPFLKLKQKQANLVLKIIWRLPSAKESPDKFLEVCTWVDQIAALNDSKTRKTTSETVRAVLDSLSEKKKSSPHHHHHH

URA2 = molecular target: T5, URA2
T5 chain: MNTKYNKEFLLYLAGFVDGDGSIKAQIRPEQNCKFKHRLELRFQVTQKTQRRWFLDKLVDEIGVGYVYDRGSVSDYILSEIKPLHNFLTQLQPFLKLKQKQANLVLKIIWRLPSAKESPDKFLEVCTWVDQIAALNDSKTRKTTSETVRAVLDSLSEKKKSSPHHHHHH

ACH2 = molecular target: T6, ACH2
T6 chain: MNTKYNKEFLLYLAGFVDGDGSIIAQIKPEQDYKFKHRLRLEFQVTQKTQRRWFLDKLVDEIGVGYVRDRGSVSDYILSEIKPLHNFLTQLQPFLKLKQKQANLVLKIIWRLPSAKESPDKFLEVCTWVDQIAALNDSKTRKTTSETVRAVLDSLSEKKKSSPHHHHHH

[2] = molecular target: T7, HGH2 (partner of CYP in the CYP/HGH2 heterodimer, the 44th table)
T7 chain: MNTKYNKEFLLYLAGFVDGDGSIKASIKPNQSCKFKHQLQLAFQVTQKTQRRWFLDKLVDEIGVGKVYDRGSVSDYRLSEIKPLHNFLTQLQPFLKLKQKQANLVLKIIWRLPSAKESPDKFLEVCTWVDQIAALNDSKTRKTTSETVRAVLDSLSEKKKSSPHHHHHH

CF2 = molecular target: T8, CF2
T8 chain: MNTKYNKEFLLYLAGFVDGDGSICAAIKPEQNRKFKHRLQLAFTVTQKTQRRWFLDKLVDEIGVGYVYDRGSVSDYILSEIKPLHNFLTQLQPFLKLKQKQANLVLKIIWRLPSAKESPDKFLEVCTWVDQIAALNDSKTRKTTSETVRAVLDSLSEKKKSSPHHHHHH

LAM2 = molecular target: T9, LAM2
T9 chain: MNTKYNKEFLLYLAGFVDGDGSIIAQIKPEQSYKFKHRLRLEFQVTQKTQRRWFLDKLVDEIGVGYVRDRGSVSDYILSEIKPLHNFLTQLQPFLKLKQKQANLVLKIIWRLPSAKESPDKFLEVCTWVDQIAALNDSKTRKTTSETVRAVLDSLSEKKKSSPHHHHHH

MYD2 = molecular target: T10, MYD2
T10 chain: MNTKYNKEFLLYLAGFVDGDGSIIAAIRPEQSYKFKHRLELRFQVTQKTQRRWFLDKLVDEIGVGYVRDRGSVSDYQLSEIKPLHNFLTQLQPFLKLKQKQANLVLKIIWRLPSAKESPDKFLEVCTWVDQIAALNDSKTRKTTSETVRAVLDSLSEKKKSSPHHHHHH

CCR2 = molecular target: T11, CCR2
T11 chain: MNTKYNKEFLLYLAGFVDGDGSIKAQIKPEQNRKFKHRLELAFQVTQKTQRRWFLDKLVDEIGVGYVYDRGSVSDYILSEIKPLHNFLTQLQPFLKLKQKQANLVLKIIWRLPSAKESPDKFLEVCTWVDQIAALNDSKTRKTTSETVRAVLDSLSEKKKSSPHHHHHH

MGC2 = molecular target: T12, MGC2
T12 chain: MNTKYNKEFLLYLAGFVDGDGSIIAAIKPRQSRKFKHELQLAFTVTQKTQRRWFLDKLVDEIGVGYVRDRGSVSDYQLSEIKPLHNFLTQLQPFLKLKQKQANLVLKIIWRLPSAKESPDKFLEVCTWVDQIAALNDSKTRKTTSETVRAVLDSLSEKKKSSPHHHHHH

B1: variant of the LAM1 enzyme in which lysines at positions 7, 57, and 96 were changed to glutamic acids (protein)
chain: MNTKYNEEFLLYLAGFVDGDGSIIAQIDPRQCRKFKHELRLRFQVTQKTQRRWFLDELVDEIGVGYVRDRGSVSDYILSEIKPLHNFLTQLQPFLELKQKQANLVLKIIWRLPSAKESPDKFLEVCTWVDQIAALNDSKTRKTTSETVRAVLDSLSEKKKSSPHHHHHH
cleavage of the LAM1/LAM2 hybrid DNA site against the two palindromic sites by co-expressed interface variants [1]: the LAM1/LAM2 hybrid site was found to be cleaved preferentially over the two palindromic sites

B2: HGH1 (protein)
chain: MNTKYNKEFLLYLAGFVDGDGSIIAQIDPNQDCKFKHQLRLRFQVTQKTQRRWFLDKLVDEIGVGYVRDRGSVSDYILSEIKPLHNFLTQLQPFLKLKQKQANLVLKIIWRLPSAKESPDKFLEVCTWVDQIAALNDSKTRKTTSETVRAVLDSLSEKKKSSPHHHHHH
cleavage of a linearized DNA substrate with the intended non-palindromic recognition sequence (SEQ ID NO: 24, Human Growth Hormone promoter) by the 1:1 mixture (HGH2): each rationally-designed meganuclease heterodimer cleaves its intended DNA site

B3: GLA1 (protein)
chain: MNTKYNKEFLLYLAGFVDGDGSIKAAIKPRQSYKFKHELSLAFQVTQKTQRRWFLDKLVDEIGVGYVYDRGSVSDYQLCEIKPLHNFLTQLQPFLKLKQKQANLVLKIIWRLPSAKESPDKFLEVCTWVDQIAALNDSKTRKTTSETVRAVLDSLSEKKKSSPHHHHHH
cleavage of a linearized DNA substrate with the intended non-palindromic recognition sequence (SEQ ID NO: 32, Arabidopsis GL2 gene) by the 1:1 mixture (GLA2): each rationally-designed meganuclease heterodimer cleaves its intended DNA site

B4: BRP1 (protein)
chain: MNTKYNKEFLLYLAGFVDGDGSIKAQIRPRQCRKFKHELELAFQVTQKTQRRWFLDKLVDEIGVGKVYDRGSVSDYELSEIKPLHNFLTQLQPFLKLKQKQANLVLKIIWRLPSAKESPDKFLEVCTWVDQIAALNDSKTRKTTSETVRAVLDSLSEKKKSSPHHHHHH
cleavage of a linearized DNA substrate with the intended non-palindromic recognition sequence (SEQ ID NO: 33, Arabidopsis BP1 gene) by the 1:1 mixture (BRP2): each rationally-designed meganuclease heterodimer cleaves its intended DNA site

B5: URA1 (protein)
chain: MNTKYNKEFLLYLAGFVDGDGSIIAQIKPNQSCKFKHQLRLAFTVTQKTQRRWFLDKLVDEIGVGYVRDRGSVSDYILSEIKPLHNFLTQLQPFLKLKQKQANLVLKIIWRLPSAKESPDKFLEVCTWVDQIAALNDSKTRKTTSETVRAVLDSLSEKKKSSPHHHHHH
cleavage of a linearized DNA substrate with the intended non-palindromic recognition sequence (SEQ ID NO: 36, Saccharomyces cerevisiae URA3 gene) by the 1:1 mixture (URA2): each rationally-designed meganuclease heterodimer cleaves its intended DNA site

B6: ACH1 (protein)
chain: MNTKYNKEFLLYLAGFVDGDGSIIAAIDPEQDCKFKHRLRLRFQVTQKTQRRWFLDKLVDEIGVGYVRDRGSVSDYQLSEIKPLHNFLTQLQPFLKLKQKQANLVLKIIWRLPSAKESPDKFLEVCTWVDQIAALNDSKTRKTTSETVRAVLDSLSEKKKSSPHHHHHH
cleavage of a linearized DNA substrate with the intended non-palindromic recognition sequence (SEQ ID NO: 23, human FGFR3 gene) by the 1:1 mixture (ACH2): each rationally-designed meganuclease heterodimer cleaves its intended DNA site

B7: CYP (protein)
chain: MNTKYNKEFLLYLAGFVDGDGSIIAAIKPNQDYKFKHQLRLAFQVTQKTQRRWFLDKLVDEIGVGYVYDRGSVSDYQLSEIKPLHNFLTQLQPFLKLKQKQANLVLKIIWRLPSAKESPDKFLEVCTWVDQIAALNDSKTRKTTSETVRAVLDSLSEKKKSSPHHHHHH
cleavage of a linearized DNA substrate with the intended non-palindromic recognition sequence (SEQ ID NO: 35, Nicotiana tabacum CYP82E4 gene) by the 1:1 mixture [2]: each rationally-designed meganuclease heterodimer cleaves its intended DNA site

B8: CF1 (protein)
chain: MNTKYNKEFLLYLAGFVDGDGSICAQIKPNQSYKFKHQLQLAFQVTQKTQRRWFLDKLVDEIGVGYVHDRGSVSDYILSEIKPLHNFLTQLQPFLKLKQKQANLVLKIIWRLPSAKESPDKFLEVCTWVDQIAALNDSKTRKTTSETVRAVLDSLSEKKKSSPHHHHHH
cleavage of a linearized DNA substrate with the intended non-palindromic recognition sequence (SEQ ID NO: 25, human CFTR deltaF508 allele) by the 1:1 mixture (CF2): each rationally-designed meganuclease heterodimer cleaves its intended DNA site

B9: LAM1 (protein)
chain: MNTKYNKEFLLYLAGFVDGDGSIIAQIDPRQCRKFKHELRLRFQVTQKTQRRWFLDKLVDEIGVGYVRDRGSVSDYILSEIKPLHNFLTQLQPFLKLKQKQANLVLKIIWRLPSAKESPDKFLEVCTWVDQIAALNDSKTRKTTSETVRAVLDSLSEKKKSSPHHHHHH
cleavage of the non-palindromic LAM1/LAM2 hybrid DNA site (SEQ ID NO: 22) by enzymes co-expressed from an operon in E. coli (LAM2): The co-expressed enzyme mixture was found to cleave all three sites, including the LAM1/LAM2 hybrid site
cleavage of the non-palindromic LAM1/LAM2 hybrid DNA site (SEQ ID NO: 22) by purified enzymes mixed 1:1 and incubated at 42 C for 20 minutes (LAM2): The 1:1 mixture of LAM1 and LAM2, however, cleaves all three DNA sites

B10: MYD1 (protein)
chain: MNTKYNKEFLLYLAGFVDGDGSIIAQIRPRQSYKFKHELELAFQVTQKTQRRWFLDKLVDEIGVGKVRDRGSVSDYELSEIKPLHNFLTQLQPFLKLKQKQANLVLKIIWRLPSAKESPDKFLEVCTWVDQIAALNDSKTRKTTSETVRAVLDSLSEKKKSSPHHHHHH
cleavage of a linearized DNA substrate with the intended non-palindromic recognition sequence (SEQ ID NO: 27, human DM kinase gene) by the 1:1 mixture (MYD2): each rationally-designed meganuclease heterodimer cleaves its intended DNA site

B11: CCR1 (protein)
chain: MNTKYNKEFLLYLAGFVDGDGSIKAQIRPRQNYKFKHELELEFQVTQKTQRRWFLDKLVDEIGVGYVYDRGSVSDYILSEIKPLHNFLTQLQPFLKLKQKQANLVLKIIWRLPSAKESPDKFLEVCTWVDQIAALNDSKTRKTTSETVRAVLDSLSEKKKSSPHHHHHH
cleavage of a linearized DNA substrate with the intended non-palindromic recognition sequence (SEQ ID NO: 26, human CCR5 gene) by the 1:1 mixture (CCR2): each rationally-designed meganuclease heterodimer cleaves its intended DNA site

B12: MGC1 (protein)
chain: MNTKYNKEFLLYLAGFVDGDGSIKAQIKPNQCYKFKHQLQLAFQVTQKTQRRWFLDKLVDEIGVGYVYDRGSVSDYILSEIKPLHNFLTQLQPFLKLKQKQANLVLKIIWRLPSAKESPDKFLEVCTWVDQIAALNDSKTRKTTSETVRAVLDSLSEKKKSSPHHHHHH
cleavage of a linearized DNA substrate with the intended non-palindromic recognition sequence (SEQ ID NO: 34, Nicotiana tabacum Magnesium Chelatase gene) by the 1:1 mixture (MGC2): each rationally-designed meganuclease heterodimer cleaves its intended DNA site
